According to patent US20160326240A1 (published 2016):
Changes are numbered by the printed parent chain.

T1: hRGMc-His (human, UniProt Q6ZVN8 36-400, limits assumed)
T1 construct: also called human RGMc; not shown: His tag
T1 sequence (looked up): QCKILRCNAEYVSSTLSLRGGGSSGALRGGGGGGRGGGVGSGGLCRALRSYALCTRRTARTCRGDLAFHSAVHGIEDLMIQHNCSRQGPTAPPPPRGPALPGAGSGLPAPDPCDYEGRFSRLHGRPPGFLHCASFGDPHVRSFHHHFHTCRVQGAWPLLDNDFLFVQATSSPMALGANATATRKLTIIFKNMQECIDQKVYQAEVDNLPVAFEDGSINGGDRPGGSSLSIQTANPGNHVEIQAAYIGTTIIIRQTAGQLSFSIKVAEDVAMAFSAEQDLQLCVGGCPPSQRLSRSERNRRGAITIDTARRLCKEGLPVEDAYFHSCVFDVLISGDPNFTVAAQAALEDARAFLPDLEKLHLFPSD

T2: Cyno RGMa-His (cynomolgus monkey, UniProt Q9N0A6 54-431, limits assumed)
T2 construct: also called cynomolgus (cyno) monkey RGMa (BIAcore); not shown: His tag
T2 sequence (looked up): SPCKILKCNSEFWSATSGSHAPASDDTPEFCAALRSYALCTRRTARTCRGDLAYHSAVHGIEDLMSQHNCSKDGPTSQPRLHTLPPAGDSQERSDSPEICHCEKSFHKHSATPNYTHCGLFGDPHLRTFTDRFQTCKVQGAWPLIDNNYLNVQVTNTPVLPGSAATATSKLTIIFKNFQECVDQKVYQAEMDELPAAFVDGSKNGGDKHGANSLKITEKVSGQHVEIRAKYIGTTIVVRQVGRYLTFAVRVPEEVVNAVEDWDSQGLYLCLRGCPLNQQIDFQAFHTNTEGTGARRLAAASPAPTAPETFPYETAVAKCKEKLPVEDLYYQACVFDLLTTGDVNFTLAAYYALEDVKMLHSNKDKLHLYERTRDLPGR

T3: hRGMa-His (human, UniProt Q96B86 48-422, limits assumed)
T3 construct: also called human RGMa (BIAcore); not shown: His tag
T3 sequence: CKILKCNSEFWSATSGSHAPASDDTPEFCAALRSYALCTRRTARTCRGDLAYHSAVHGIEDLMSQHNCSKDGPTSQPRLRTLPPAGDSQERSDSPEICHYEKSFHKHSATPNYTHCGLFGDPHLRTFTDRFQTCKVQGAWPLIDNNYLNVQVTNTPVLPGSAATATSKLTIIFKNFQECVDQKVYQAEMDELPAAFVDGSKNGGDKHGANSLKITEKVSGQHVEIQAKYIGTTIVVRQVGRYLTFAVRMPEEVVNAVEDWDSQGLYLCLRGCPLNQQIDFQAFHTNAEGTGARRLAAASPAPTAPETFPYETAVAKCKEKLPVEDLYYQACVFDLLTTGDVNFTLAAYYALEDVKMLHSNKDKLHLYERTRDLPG

T4: human RGMc (human, UniProt Q6ZVN8 36-400, limits assumed)
T4 construct: ELISA antigen for the yeast-derived antibodies; a human RGMc-Fc was used for negative selection but the ELISA antigen is not specified
T4 sequence (looked up): T1 sequence (looked up)

B1: AE12-5 (antibody, V domains shown)
VH: EVQLVQSGAEVKKPGASVKVSCKVSGHSLSELTIHWVRQAPGKGLEWMGGFDPEDGRGTYAPNFRGRVTMTEDTSTDTAYMELSGLRSEDAAVYYCATLLGEYDSYFDLWGRGTLVTVSS
VL: DVVMTQSPDFQSVTPEDKVTITCRASQSIGSCLHWYQQKPDQSPKLLIKYASQSISGVPSRFSGSGSGTDFTLTINSLEAEDAATYYCHQSSSLPYTFGQGTKLEIK
notes: kappa light chain
B2: AE12-2 (antibody, V domains shown)
VH: EVQLVQSGAEVKKPGASVKVSCKASGYTFTSYDINWVRQATGQGLEWMGWMNPNSGNTGYAQKFQGRVTMTRNTSISTAYMELSSLRSEDTAVYYCARSTSLSVWGQGTLVTVSS
VL: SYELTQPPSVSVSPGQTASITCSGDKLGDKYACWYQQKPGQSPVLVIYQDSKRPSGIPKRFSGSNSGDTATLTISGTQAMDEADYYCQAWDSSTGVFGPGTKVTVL
notes: lambda light chain
B3: AE12-3 (antibody, V domains shown)
VH: EVQLVESGGGLVQPGRSLRLSCAASGFTFDDYAMHWVRQAPGKGLEWVAVISYDGSNKYYADSVKGRFTISRDNSKNTLYLQMNSLRAEDTAVYYCARERVYSSGKEGYYYGMDVWGQGTMVTVSS
VL: QSGLTQPPSVSAAPGQRVTISCTGSGSNIGAGYGVHWYQQLPATAPKILIYGDYNRPSGVPDRFSGSRSGTSASLTITGLQAEDEADYYCQSYDNSLRGVLFGGGTKLTVL
notes: lambda light chain
B4: AE12-1-F (antibody, V domains shown)
VH: EVQLVQSGAEVKKPGASVKVSCKASGYTFTSHGISWVRQAPGQGLDWMGWISPYSGNTNYAQKLQGRVTMTTDTSTSTAYMELSSLRSEDTAVYYCARVGSGPYYYMDVWGQGTLVTVSS
VL: QSALTQPRSVSGSPGQSVTISCTGTSSSVGDSIYVSWYQQHPGKAPKLMLYDVTKRPSGVPDRFSGSKSGNTASLTISGLQAEDEADYYCFSYAGTDTLFGGGTKVTVL
notes: AE12-1 variant, Cys of VL CDR-L3 replaced; IgG
B5: AE12-1-H (antibody, V domains shown)
VH: B4 VH
VL: B4 VL with F91H
notes: AE12-1 variant; IgG
B6: AE12-1-L (antibody, V domains shown)
VH: B4 VH
VL: B4 VL with F91L
notes: AE12-1 variant; IgG; also called AE-12-L
B7: AE12-1-Y (antibody, V domains shown)
VH: B4 VH
VL: B4 VL with F91Y
notes: AE12-1 variant; IgG
B8: AE12-1-K (antibody, V domains shown)
VH: B4 VH
VL: B4 VL with F91K
notes: AE12-1 variant; IgG
B9: AE12-1-I (antibody, V domains shown)
VH: B4 VH
VL: B4 VL with F91I
notes: AE12-1 variant; IgG
B10: AE12-1-V (antibody, V domains shown)
VH: B4 VH
VL: B4 VL with F91V
notes: AE12-1 variant; read as AE12-1-V from the order of the variants; IgG
B11: AE12-8 (antibody, V domains shown)
VH: EVQLLESGGGLVKPGGSLRLSCAASGFTFDDYAMHWVRQAPGKGLEWVSLISWDGGSTYYADSVKGRFTISRDNSKNSLYLQMNSLRAEDTALYYCAKDIPKVGGYSYGYGALGYWGQGTPVTVSS
VL: SYELTQPPSVSVAPGQTARITCGGNNIGDISVHWYQQKSGQAPMLVVHDDSDRPSGIPERFSGSNSGSSATLTISRVEAGDEADYHCQVWDSGSGHHVFGTGTKVTVL
notes: lambda light chain
B12: AE12-7 (antibody, V domains shown)
VH: EVQLVESGGGLVQPGGSLRLSCAASGFTSSSYAMTWVRQAPGKGLEWVSGISGSGESTYYADSVKGRFTISRDNSKNTLYLQMNSLRVEDTAIYYCARQGYGAHDYWGQGTLVTVSS
VL: not shown
notes: lambda light chain
B13: AE12-13 (antibody, V domains shown)
VH: EVQLQESGAGLLKPSETLSLTCAVYGGSFSGYYWSWIRQPPGKGLEWIGEINHSGSTNYNPSLKSRVTISVDTSKNQFSLKLSSVTAADTAVYYCARDDGAGVFDLWGRGTLVTVSS
VL: DIQLTQSPSSLSASVGDGVTITCQASQDISNYLNWYQQKPGKAPKLLIYDASNLETGVPSRFSGSGSGTFFTLTINNLQPEDFATYYCQQSGNTPWTFGQGTKVEINR
notes: kappa light chain
B14: AE12-15 (antibody, V domains shown)
VH: EVQLVQSGAEVKEPGASVKVSCKASGYTFTDYYIQWVRQAPGHGLEWMGWINPKTGGTNYLQKFQGRVTMTRDTSTRTAYMELSSLRSDDTAFYYCVREDMNTVLATSWFDPWGQGTLVTVSS
VL: SYELTQPPSVSVSPGQTARITCSGNQLGHKFASWYQQKPGQSPVVVIYEDKKRPSGIPERFSGSNSGNTATLTISGTQAMDEADYYCQVWDVITDHYVFGTGTKVTVLG
notes: lambda light chain
B15: AE12-23 (antibody, V domains shown)
VH: EVQLQESGPGLVKPSETLSLTCTVSGGSISGYYWSWIRQSPGKGLEWIGEIFHTGRTYYNPSLRSRLTISVDTSKNQFSLKLSSLTAADTAVYYCARDSAFGSFDYWGQGTLVTVSS
VL: DIRVTQSPSSLSASVGDRVTITCQANEDISIYLNWYQQRPGKAPKLLIYDASNLETGVPSRFSGSGSGTDFTFTISSLQPEDFATYYCQQYHTYPFTFGGGTKVDIKR
notes: kappa light chain

Molecular target: T1, hRGMc-His
Test: direct binding ELISA (hRGMc-His)

binding result | Binder
no binding (tested: 100 nM) | B1
no binding (tested: 100 nM) | B2
no binding (tested: 100 nM) | B3

Molecular target: T1, hRGMc-His
Test: BIAcore binding

binding result | Binder
no binding | B4
no binding | B5
no binding | B6
no binding | B7
no binding | B8
no binding | B9
no binding | B10

Molecular target: T2, Cyno RGMa-His
Test: BIAcore

Kd | koff | kon | Binder
5.4 nM | 0.00025 s⁻¹ | 44000 M⁻¹ s⁻¹ | B4
13.4 nM | 0.00063 s⁻¹ | 47000 M⁻¹ s⁻¹ | B5
10.1 nM | 0.00067 s⁻¹ | 62000 M⁻¹ s⁻¹ | B6
4.9 nM | 0.0002 s⁻¹ | 40000 M⁻¹ s⁻¹ | B7
9.3 nM | 0.00047 s⁻¹ | 51000 M⁻¹ s⁻¹ | B8
8.9 nM | 0.00087 s⁻¹ | 99000 M⁻¹ s⁻¹ | B9
9.2 nM | 0.00099 s⁻¹ | 110000 M⁻¹ s⁻¹ | B10

Molecular target: T3, hRGMa-His
Test: BIAcore

Kd | koff | kon | Binder
1.4 nM | 3.9e-05 s⁻¹ | 27000 M⁻¹ s⁻¹ | B4
3.8 nM | 0.00012 s⁻¹ | 32000 M⁻¹ s⁻¹ | B5
6.6 nM | 0.00025 s⁻¹ | 38000 M⁻¹ s⁻¹ | B6
0.6 nM | 1.3e-05 s⁻¹ | 22000 M⁻¹ s⁻¹ | B7
8.8 nM | 0.0003 s⁻¹ | 34000 M⁻¹ s⁻¹ | B8
4.5 nM | 0.00013 s⁻¹ | 30000 M⁻¹ s⁻¹ | B9
5.9 nM | 0.00015 s⁻¹ | 25000 M⁻¹ s⁻¹ | B10

Molecular target: T1, hRGMc-His
Test: hRGMc-His ELISA

binding result | Binder
binds | B11
binds | B12

Molecular target: T3, hRGMa-His
Test: BIAcore
Remark: another data set of the same source

fold increased affinity vs parental AE12-1 | Binder
5 fold | B4
≥ 10 fold | B7

Molecular target: T4, human RGMc
Test: ELISA

binding result | Binder
binds | B13
binds | B14
binds | B15
